Consider five molecules from patent publication US20070161067A1 (STANFORD UNIVERSITY, published 2007).

Test in all cases: cell-based or functional assay
The target of assay [1] is Cfluc-FKBP12, split site at amino acid position 437 of SEQ ID NO: 2 (Photinus pyralis) (UniProt P62942).
Assay [2] deals with Cfluc-FKBP12, split site at amino acid position 445 of SEQ ID NO: 2 (Photinus pyralis) (UniProt P62942).
For assay [3], the target named is Cfluc-FKBP12, split site at amino acid position 455 of SEQ ID NO: 2 (Photinus pyralis) (UniProt P62942).
Assay [4] deals with Cfluc-FKBP12, split site at amino acid position 420 of SEQ ID NO: 2 (Photinus pyralis) (UniProt P62942).
Assay [5] has as its target Cfluc (265-550 of SEQ ID NO: 2) (Photinus pyralis, UniProt P08659 265-550 = luciferase).
Assay [6] deals with T1, Cfluc (500-550 of SEQ ID NO: 2) (Photinus pyralis, UniProt P08659 501-550 = luciferase).
T1 chain: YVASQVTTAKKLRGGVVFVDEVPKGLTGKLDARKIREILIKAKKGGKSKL

The target of assay [7] is Cfluc (245-550 of SEQ ID NO: 2) (Photinus pyralis, UniProt P08659 245-550 = luciferase).
Assay [8] has as its target Cfluc (437-550 of SEQ ID NO: 2) (Photinus pyralis, UniProt P08659 438-550 = luciferase).
Assay [9] concerns the target Cfluc (445-550 of SEQ ID NO: 2) (Photinus pyralis, UniProt P08659 446-550 = luciferase).
For assay [10], the target named is Cfluc (300-550 of SEQ ID NO: 2) (Photinus pyralis, UniProt P08659 300-550 = luciferase).

Chain of Cfluc-FKBP12, split site at amino acid position 445 of SEQ ID NO: 2 (Photinus pyralis) (P62942 other isoform, or with tags, fused parts or gaps limits assumed): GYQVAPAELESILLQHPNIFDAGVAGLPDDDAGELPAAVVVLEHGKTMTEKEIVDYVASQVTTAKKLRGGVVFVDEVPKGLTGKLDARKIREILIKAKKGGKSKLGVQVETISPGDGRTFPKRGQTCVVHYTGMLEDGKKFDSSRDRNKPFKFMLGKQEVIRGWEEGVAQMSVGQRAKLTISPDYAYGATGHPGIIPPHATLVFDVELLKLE
Chain of Cfluc-FKBP12, split site at amino acid position 455 of SEQ ID NO: 2 (Photinus pyralis) (P62942 other isoform, or with tags, fused parts or gaps limits assumed): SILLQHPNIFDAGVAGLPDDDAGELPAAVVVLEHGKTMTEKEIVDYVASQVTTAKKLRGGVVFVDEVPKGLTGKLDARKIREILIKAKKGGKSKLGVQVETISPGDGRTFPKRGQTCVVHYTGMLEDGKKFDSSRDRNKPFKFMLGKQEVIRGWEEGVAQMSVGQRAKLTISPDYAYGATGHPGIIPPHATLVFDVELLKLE
Chain of Cfluc-FKBP12, split site at amino acid position 437 of SEQ ID NO: 2 (Photinus pyralis) (P62942 other isoform, or with tags, fused parts or gaps limits assumed): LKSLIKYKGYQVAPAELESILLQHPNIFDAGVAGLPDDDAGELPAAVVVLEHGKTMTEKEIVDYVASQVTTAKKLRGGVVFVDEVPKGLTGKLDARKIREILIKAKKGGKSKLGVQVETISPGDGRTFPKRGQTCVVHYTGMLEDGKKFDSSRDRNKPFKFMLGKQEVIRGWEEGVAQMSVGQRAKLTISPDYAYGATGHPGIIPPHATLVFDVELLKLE
Chain of Cfluc-FKBP12, split site at amino acid position 420 of SEQ ID NO: 2 (Photinus pyralis) (P62942 other isoform, or with tags, fused parts or gaps limits assumed): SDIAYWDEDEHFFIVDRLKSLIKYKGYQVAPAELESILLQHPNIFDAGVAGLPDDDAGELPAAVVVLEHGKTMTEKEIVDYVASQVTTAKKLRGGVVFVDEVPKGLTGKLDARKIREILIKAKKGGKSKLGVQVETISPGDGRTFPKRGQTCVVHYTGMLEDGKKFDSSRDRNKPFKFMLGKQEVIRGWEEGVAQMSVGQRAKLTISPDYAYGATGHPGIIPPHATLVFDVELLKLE

On to “FRB-Nfluc, split site at amino acid position 437 of SEQ ID NO: 2 (from UniProt P42345 2024-2113)”, for which the firefly luciferase signal upon exposure to rapamycin, fold over the cells not exposed to rapamycin (co-transfected 293T cells) in assay [1] amounted to 40 fold.

Turning to “FRB-Nfluc, split site at amino acid position 445 of SEQ ID NO: 2 (from UniProt P42345 2024-2113)”, in assay [2], the firefly luciferase signal upon exposure to rapamycin, fold over the cells not exposed to rapamycin (co-transfected 293T cells) was found to be 350 fold.

In [3], “FRB-Nfluc, split site at amino acid position 455 of SEQ ID NO: 2 (from UniProt P42345 2024-2113)” came in with a firefly luciferase signal upon exposure to rapamycin, fold over the cells not exposed to rapamycin (co-transfected 293T cells) of 30 fold.

In [4], “FRB-Nfluc, split site at amino acid position 420 of SEQ ID NO: 2 (from UniProt P42345 2024-2113)” had a firefly luciferase signal upon exposure to rapamycin, fold over the cells not exposed to rapamycin (co-transfected 293T cells) of 10 fold.

B1: Nfluc (1-475 of SEQ ID NO: 2) (other)
chain: MEDAKNIKKGPAPFYPLEDGTAGEQLHKAMKRYALVPGTIAFTDAHIEVNITYAEYFEMSVRLAEAMKRYGLNTNHRIVVCSENSLQFFMPVLGALFIGVAVAPANDIYNERELLNSMNISQPTVVFVSKKGLQKILNVQKKLPIIQKIIIMDSKTDYQGFQSMYTFVTSHLPPGFNEYDFVPESFDRDKTIALIMNSSGSTGLPKGVALPHRTACVRFSHARDPIFGNQIIPDTAILSVVPFHHGFGMFTTLGYLICGFRVVLMYRFEEELFLRSLQDYKIQSALLVPTLFSFFAKSTLIDKYDLSNLHEIASGGAPLSKEVGEAVAKRFHLPGIRQGYGLTETTSAILITPEGDDKPGGVGKVVPFFEAKVVDLDTGKTLGVNQRGELCVRGPMIMSGYVNNPEATNALIDKDGWLHSDIAYWDEDEHFFIVDRLKSLIKYKGYQVAPAELESILLQHPNIFDAGVAGLPDDD
For B1, the “average of photon max across six animals, 72 h” value in assay [5] came out at 1.8 P/cm^2/sec/sr; in assay [6], 0.3 P/cm^2/sec/sr; in assay [7] it was 1.1 P/cm^2/sec/sr; in [8], 2.1 P/cm^2/sec/sr; in assay [9] it was 0.7 P/cm^2/sec/sr; in assay [10], 1.9 P/cm^2/sec/sr. Moreover, the “bioluminescence signal of implanted co-transfected 293T cells in living mice, 24 h” value in [5], in assay [7] and in [10] was 0.3 P/cm^2/sec/sr throughout. The “luciferase signal against the combination Nfluc 1-475 / Cfluc 265-550 (cell culture and animal study)” value in [7] is 2 fold less.
